Data reported in patent publication US20030181408A1, “Genes essential for microbial proliferation and antisense thereto” (priority 1999, published 2003).
Values after ≈ are worked out from the molar mass of the structure shown. Where a SMILES comes first, the peptide text is derived from it. Bridges are numbered along the chain shown (N, C = ends). [ ]: non-standard residue; d: D form. The star is where a group is joined. Ileψ(thiazoline)Cys = CC[C@H](C)[C@H](N)C1=N[C@H](C(=O)*)CS1; dOrn = NCCC[C@@H](N)C(=O)O

Tests used:
[1] = tested on: bacterial strain engineered for expression of an antisense against rplL and rplJ (50S ribosomal subunit proteins); assay: microbe, parasite or virus in culture; format: cell-based, E. coli; conditions: read-out: IC50 (+I)
Method: Antibiotics of various chemical classes and modes of action were purchased from Sigma Chemicals (St. Louis, Mo.). Stock solutions were prepared by dissolving each antibiotic in an appropriate aqueous solution based on information provided by the manufacturer. The final working solution of each antibiotic contained no more than 0.2% (w/v) of any organic solvent. To determine their potency against a bacterial strain engineered for expression of an antisense against a proliferation-required gene encoding 50S ribosomal protein, each antibiotic was serially diluted two or three fold in growth medium supplemented with the appropriate antibiotic for maintenance of the anti-sense construct. At least ten dilutions were prepared for each antibiotic. 25 μL aliquots of each dilution were transferred to discrete wells of a 384-well microplate (the assay plate) using a multi-channel pipette. Quadruplicate wells were used for each dilution of an antibiotic under each treatment condition (plus and minus inducer). Each assay plate contained twenty wells for cell growth controls (growth media replacing antibiotic), ten wells for each treatment (plus and minus inducer, in this example IPTG). Assay plates were usually divided into the two treatments: half the plate containing induced cells and an appropriate concentrations of inducer (in this example IPTG) to maintain the state of induction, the other half containing non-induced cells in the absence of IPTG.
Cells for the assay were prepared as follows. Bacterial cells containing a construct, from which expression of antisense nucleic acid against rplL and rplJ, which encode proliferation-required 50S ribosomal subunit proteins, is inducible in the presence of IPTG, were grown into exponential growth (OD600 0.2 to 0.3) and then diluted 1:100 into fresh media containing either 400 μM or 0 μM inducer (IPTG). These cultures were incubated at 37° C. for 2.5 hr. After a 2.5 hr incubation, induced and non-induced cells were respectively diluted into an assay medium at a final OD600 value of 0.0004. The medium contained an appropriate concentration of the antibiotic for the maintenance of the anti-sense construct. In addition, the medium used to dilute induced cells was supplemented with 800 μM IPTG so that addition to the assay plate would result in a final IPTG concentration of 400 μM. Induced and non-induced cell suspensions were dispensed (25 μl/well) into the appropriate wells of the assay plate as discussed previously. The plate was then loaded into a plate reader, incubated at constant temperature, and cell growth was monitored in each well by the measurement of light scattering at 595 nm. Growth was monitored every 5 minutes until the cell culture attained a stationary growth phase. For each concentration of antibiotic, a percentage inhibition of growth was calculated at the time point corresponding to mid-exponential growth for the associated control wells (no antibiotic, plus or minus IPTG). For each antibiotic and condition (plus or minus IPTG), a plot of percent inhibition versus log of antibiotic concentration was generated and the IC50 determined.

E. coli = assay: Inhibition of E. coli proliferation after IPTG induction of antisense clones (liquid growth curves, dilution spotting on plates); format: cell-based, Escherichia coli; conditions: for effect of antisense expression on E. coli growth after IPTG induction: 1 mM IPTG
Method: (§1) To study the effects of transcriptional induction in liquid medium, growth curves were carried out by back diluting cultures 1:200 into fresh media with or without 1 mM IPTG and measuring the OD450 every 30 minutes (min). To study the effects of transcriptional induction on solid medium, 10^2, 10^3, 10^4, 10^5, 10^6, 10^7 and 10^8 fold dilutions of overnight cultures were prepared. Aliquots of from 0.5 to 3 μl of these dilutions were spotted on selective agar plates with or without 1 mM IPTG. After overnight incubation, the plates were compared to assess the sensitivity of the clones to IPTG.
(§2) Molecule No. EcXA059, encoding a portion of the ypjA gene of Escherichia coli, was either transformed directly into Enterobacter cloacae, Salmonella typhimurium and/or Klebsiella pneumoniae or subdloned into an expression vector functional in these species and the subclones transformed into these organisms. Suitable expression vectors are well known in the art. These expression vectors were introduced into Enterobacter cloacae, Salmonella typhimurium and/or Klebsiella pneumoniae cells that were then assayed for growth inhibition according to the method of Example 1. After growth in liquid culture, cells were plated at various serial dilutions and a score determined by calculating the log difference in growth for INDUCED vs. UNINDUCED antisense RNA expression as determined by the maximum 10 fold dilution at which a colony was observed. If there was no effect of antisense RNA expression in one organism, the clone is given a score of zero “0” in that organism. In contrast, a score of “8” means that 10^8 times more cells were required to observe a colony formed on the induced state than in the non-induced state under the conditions used and in that organism.

Enterobacter cloacae = assay: Growth inhibition by IPTG-induced antisense RNA expression in Enterobacter cloacae (induced vs. uninduced serial dilution plating); format: cell-based
Method: as §1, §2
(§3) Expression vectors which inhibited growth of E. coli upon induction of antisense RNA expression with IPTG were transformed directly into Enterobacter cloacae, Klebsiella pneumonia or Salmonella typhimurium. The transformed cells were then assayed for growth inhibition according to the method of Example 1. After growth in liquid culture, cells were plated at various serial dilutions and a score determined by calculating the log difference in growth for INDUCED vs. UNINDUCED antisense RNA expression as determined by the maximum 10 fold dilution at which a colony was observed. If there was no effect of antisense RNA expression in a microorganism, the clone is minus in Table V below. In contrast, a positive in Table V below means that at least 10 fold more cells were required to observe a colony on the induced plate than on the non-induced plate under the conditions used and in that microorganism.

Salmonella typhimurium = assay: Growth inhibition by IPTG-induced antisense RNA expression in Salmonella typhimurium (induced vs. uninduced serial dilution plating); format: cell-based
Method: as §1, §2, §3

Klebsiella pneumoniae = assay: Growth inhibition by IPTG-induced antisense RNA expression in Klebsiella pneumoniae (induced vs. uninduced serial dilution plating); format: cell-based
Method: as §1, §2, §3

Row | Molecule | IC50 [1] | effect of antisense expression on E. coli growth after IPTG induction (E. coli) | further results
1 | CC[C@H](C)[C@H](N)C1=N[C@H](C(=O)N[C@@H](CC(C)C)C(=O)N[C@H](CCC(=O)O)C(=O)N[C@H](C(=O)N[C@H]2CCCCNC(=O)[C@H](CC(N)=O)NC(=O)[C@@H](CC(=O)O)NC(=O)[C@H](Cc3cnc[nH]3)NC(=O)[C@@H](Cc3ccccc3)NC(=O)[C@H]([C@@H](C)CC)NC(=O)[C@@H](CCCN)NC2=O)[C@@H](C)CC)CS1 [Bacitracin] ({Ileψ(thiazoline)Cys}-L[dE]IK[dOrn]I[dF]H[dD]N; lactam 4-C) | 4670 µg/mL (≈ 3280 µM) |  | 
2 | CO/N=C(\C(=O)N[C@@H]1C(=O)N2C(C(=O)O)=C(COC(C)=O)CS[C@H]12)c1csc(N)n1 [Cefotaxime] | 0.0241 µg/mL (≈ 0.0529 µM) |  | 
3 | O=C(N[C@H](CO)[C@H](O)c1ccc([N+](=O)[O-])cc1)C(Cl)Cl [Chloramphenicol] | 0.00151 µg/mL (≈ 0.00467 µM) |  | 
4 | CN(C)c1ccc(O)c2c1C[C@H]1C[C@H]3[C@H](N(C)C)C(O)=C(C(N)=O)C(=O)[C@@]3(O)C(O)=C1C2=O [Minocycline] | 0.00389 µg/mL (≈ 0.0085 µM) |  | 
5 | CCn1cc(C(=O)O)c(=O)c2ccc(C)nc21 [Nalidixic acid] | 6.02 µg/mL (≈ 25.9 µM) |  | 
6 | CN[C@@H]1[C@H](O)[C@H](NC)[C@H]2O[C@@]3(O)C(=O)C[C@@H](C)O[C@H]3O[C@@H]2[C@H]1O [Spectinomycin] | < 0.15 µg/mL |  | 
7 | NC[C@H]1O[C@H](O[C@H]2[C@H](O)[C@@H](O[C@H]3O[C@H](CO)[C@@H](O)[C@H](N)[C@H]3O)[C@H](N)C[C@@H]2N)[C@H](N)C[C@@H]1O [Tobramycin] | 0.0705 µg/mL (≈ 0.151 µM) |  | 
8 | EcXA062: antisense clone insert, E. coli gene rep (nucleic acid, listed as Escherichia coli, misc_feature (1)...(328): n = A,T,C or G, antisense clone insert, E. coli gene rep) DNA: CGCGTGGAGAGTCATCAGTTGCACCTGATCCAGCTCTTCTTCACTCTCACCACGCTCNATCATGTCGCGCAAAGTAAAGCGCGTCACCACCTGGGTGAGCGTCATCGGCTCATCCAGTTCACTGCCTTCCAGCATCTCCGTCATCCAGCTAAACAGTTGGTTGACGTTCTTCATGCGCATTTCGGCGGCTTTCGGGCTGGGCGATGTTTCGTACAGCCAGGATTCATAATCCATGCCATGGATCAGATCACGCACCGCGGCAATCGGCTCCCGCTCCGCCAGACGCTGGATTTCTGCCAACCAGTGAGTGAAGCGGGTCAATGCTTCA |  | reduction in cell growth | Sensitivity of E. cloacae to antisense nucleic acid (growth inhibition, induced vs. uninduced) (Enterobacter cloacae): −; Sensitivity of S. typhimurium to antisense nucleic acid (growth inhibition, induced vs. uninduced) (Salmonella typhimurium): −; Sensitivity of K. pneumoniae to antisense nucleic acid (growth inhibition, induced vs. uninduced) (Klebsiella pneumoniae): −
9 | EcXA072: antisense clone insert, E. coli gene recJ (nucleic acid, listed as Escherichia coli) DNA: GATTTTTACCGGATTAATTTTAAACATGGTCTGATTTCTTTTATTGAGCTAGTCAAAATGCGGTGATAAGAGCGGGATTGTCCCAATCCACGCTCTTTTTTATAGAGAAGATGACGCTAAATTGGCCAGATATTGTCGATGATAATTTG |  | reduction in cell growth | Sensitivity of E. cloacae to antisense nucleic acid (growth inhibition, induced vs. uninduced) (Enterobacter cloacae): −
10 | EcXA082: antisense clone insert, E. coli genes hybC; hybB (nucleic acid, listed as Escherichia coli) DNA: TGCTTTGCTCGCCTCATGACGATTATGATCGTTTTGTTTTAAAGGAGGAAGTATCGGCAGTAGACGAATGAGTACGATGTAAGCGCAAATCTCAATAGCCACAAAACCAATAGAAATCAACAGTTCTTCCCAGGTCGGGAAGTA |  | reduction in cell growth | Sensitivity of S. typhimurium to antisense nucleic acid (growth inhibition, induced vs. uninduced) (Salmonella typhimurium): −; Sensitivity of K. pneumoniae to antisense nucleic acid (growth inhibition, induced vs. uninduced) (Klebsiella pneumoniae): −
11 | EcXA104: antisense clone insert, E. coli gene hsdS (nucleic acid, listed as Escherichia coli) DNA: GACGCGGCGAACGATTTCGGCTTGTTCTTTTACTGGAGGTAATAAAACAACTTGGGATTTGATATCTTTTCCTGAAATACCTTTTTGACCAGAAGTTGTTTTCACGCAGTTCATCATTGCATTTCGTGCTGAGGGGGATGAAAAAAATATTTCGATATATTCTGGTAAAGCATCTTT |  | reduction in cell growth | 
12 | EcXA059: antisense clone insert, portion of the ypjA gene of Escherichia coli (nucleic acid, listed as Escherichia coli, misc_feature (1)...(839): n = A,T,C or G, antisense clone insert, portion of the ypjA gene of Escherichia coli) DNA: NACCANGANTGGGACCCAAATGAAAATTGAACTGAAGATTACAATCAATTTAACANCAAGTTACACAACCAATTCAGACTCCGCCAGCCCACCAATCATGATTGGACGGTGTAAGGACAACACCAACAAAAACAGGAAGTTAGAAGTCTNAGCAAAACACCGACCAGACGGTGAGGAGACATAAAAGGATACGCAAAGGAGCCGCGGCTCCTGGTAACATGAAAGCCCACAGATGTGGGCTTTTTCGTTGATGGTCAGAACGACCAGTTCACACCAGCTACCGCGTTCCACGGGGATTCCACACCGGCACTATGGCTATACCCCACCCCAAGATGCCCGCTTAACGTACTGCTGAATGAGGCTTTAATACCTGCCTGGTATATTCCACGTCTGCCCGACAAATAATTGACGAAATTACCGNCACTATTCACTTTCACCCGGTTATCATCGACAAATTCTTTGCGCACAAGCCGNCTTCAGCCACGGNTCAACTTCCATACCGNTCCCCAGACGCATGTTGTAACTCAACGTTGCGCCCAGTTCACGATATATACTGCGGGTATCGACTGATTTCGATTTCATGCCATTGGATAAATGATATTCGGGGTTATCAGCGGTGAAACCCGTTNACGATGCATACNGGGTCAGGGTTCAATTACCATCGGTAAATCGCATTCCCGGTTTCAATGTGACCGCCAANCCCGTTGCTGTNGGTAACTGGCATTGGCGGGTTCANCGGTGGTAATTTTAACCTGGTACGNTACTTTTAAAACGGGTTAAGCTTTACCGAANACCGTNCANNATTGGAAACCCNCTTTTAATGGTTNCCCAACTNGGNN |  |  | score: log difference in growth for INDUCED vs. UNINDUCED antisense RNA expression (E. coli; Escherichia coli, IPTG induction, maximum 10 fold dilution at which a colony was observed): 8
13 | EcXA069: antisense clone insert, E. coli genes RplD; rplC (nucleic acid, listed as Escherichia coli, misc_feature (1)...(156): n = A,T,C or G, antisense clone insert, E. coli genes RplD; rplC) DNA: TGAAATNCGACCGAAGGTAGTTTCGGAAACAGTCAGCGCGCTCTGCGCGTCTTTCAATACTAATTCCATTGCTATCTCCTTACGCCTTCACAGCTGGTTTAACGATCAGGTCGCTACCGGTTGCACCCGGGACAGCACCTTTAACCAGCAGCAGGT |  |  | Sensitivity of E. cloacae to antisense nucleic acid (growth inhibition, induced vs. uninduced) (Enterobacter cloacae): + (a positive in Table V below means that at least 10 fold more cells were required to observe a colony on the induced plate than on the non-induced plate); Sensitivity of S. typhimurium to antisense nucleic acid (growth inhibition, induced vs. uninduced) (Salmonella typhimurium): −; Sensitivity of K. pneumoniae to antisense nucleic acid (growth inhibition, induced vs. uninduced) (Klebsiella pneumoniae): −
